Results: patent publication US7816499B2, “Antibodies that selectively bind HDAC9” (Sloan-Kettering Institute for Cancer Research, priority 2001, dated 2010)

B1: HDAC9: novel class II histone deacetylase, 1011 amino acids (SEQ ID NO: 2); tested as FLAG-tagged protein (protein, listed as Homo sapiens)
chain: MHSMISSVDVKSEVPVGLEPISPLDLRTDLRMMMPVVDPVVREKQLQQELLLIQQQQQIQKQLLIAEFQKQHENLTRQHQAQLQEHIKELLAIKQQQELLEKEQKLEQQRQEQEVERHRREQQLPPLRGKDRGRERAVASTEVKQKLQEFLLSKSATKDTPTNGKNHSVSRHPKLWYTAAHHTSLDQSSPPLSGTSPSYKYTLPGAQDAKDDFPLRKTASEPNLKVRSRLKQKVAERRSSPLLRRKDGNVVTSFKKRMFEVTESSVSSSSPGSGPSSPNNGPTGSVTENETSVLPPTPHAEQMVSQQRILIHEDSMNLLSLYTSPSLPNITLGLPAVPSQLNASNSLKEKQKCETQTLRQGVPLPGQYGGSIPASSSHPHVTLEGKPPNSSHQALLQHLLLKEQMRQQKLLVAGGVPLHPQSPLATKERISPGIRGTHKLPRHRPLNRTQSAPLPQSTLAQLVIQQQHQQFLEKQKQYQQQIHMNKLLSKSIEQLKQPGSHLEEAEEELQGDQAMQEDRAPSSGNSTRSDSSACVDDTLGQVGAVKVKEEPVDSDEDAQIQEMESGEQAAFMQQPFLEPTHTRALSVRQAPLAAVGMDGLEKHRLVSRTHSSPAASVLPHPAMDRPLQPGSATGIAYDPLMLKHQCVCGNSTTHPEHAGRIQSIWSRLQETGLLNKCERIQGRKASLEEIQLVHSEHHSLLYGTNPLDGQKLDPRILLGDDSQKFFSSLPCGGLGVDSDTIWNELHSSGAARMAVGCVIELASKVASGELKNGFAVVRPPGHHAEESTAMGFCFFNSVAITAKYLRDQLNISKILIVDLDVHHGNGTQQAFYADPSILYISLHRYDEGNFFPGSGAPNEVGTGLGEGYNINIAWTGGLDPPMGDVEYLEAFRTIVKPVAKEFDPDMVLVSAGFDALEGHTPPLGGYKVTAKCFGHLTKQLMTLADGRVVLALEGGHDLTAICDASEACVNALLGNELEPLAEDILHQSPNMNAVISLQKIIEIQSMSLKFS
modifications: FLAG tag
notes: tested as FLAG-tagged protein
B2: HDAC9a: alternatively spliced isoform of HDAC9, 879 amino acids (SEQ ID NO: 4); tested as FLAG-tagged protein (protein, listed as Homo sapiens)
chain: MHSMISSVDVKSEVPVGLEPISPLDLRTDLRMMMPVVDPVVREKQLQQELLLIQQQQQIQKQLLIAEFQKQHENLTRQHQAQLQEHIKELLAIKQQQELLEKEQKLEQQRQEQEVERHRREQQLPPLRGKDRGRERAVASTEVKQKLQEFLLSKSATKDTPTNGKNHSVSRHPKLWYTAAHHTSLDQSSPPLSGTSPSYKYTLPGAQDAKDDFPLRKTASEPNLKVRSRLKQKVAERRSSPLLRRKDGNVVTSFKKRMFEVTESSVSSSSPGSGPSSPNNGPTGSVTENETSVLPPTPHAEQMVSQQRILIHEDSMNLLSLYTSPSLPNITLGLPAVPSQLNASNSLKEKQKCETQTLRQGVPLPGQYGGSIPASSSHPHVTLEGKPPNSSHQALLQHLLLKEQMRQQKLLVAGGVPLHPQSPLATKERISPGIRGTHKLPRHRPLNRTQSAPLPQSTLAQLVIQQQHQQFLEKQKQYQQQIHMNKLLSKSIEQLKQPGSHLEEAEEELQGDQAMQEDRAPSSGNSTRSDSSACVDDTLGQVGAVKVKEEPVDSDEDAQIQEMESGEQAAFMQQPFLEPTHTRALSVRQAPLAAVGMDGLEKHRLVSRTHSSPAASVLPHPAMDRPLQPGSATGIAYDPLMLKHQCVCGNSTTHPEHAGRIQSIWSRLQETGLLNKCERIQGRKASLEEIQLVHSEHHSLLYGTNPLDGQKLDPRILLGDDSQKFFSSLPCGGLGVDSDTIWNELHSSGAARMAVGCVIELASKVASGELKNGFAVVRPPGHHAEESTAMGFCFFNSVAITAKYLRDQLNISKILIVDLDVHHGNGTQQAFYADPSILYISLHRYDEGNFFPGSGAPNEVRFISLEPHFYLYLSGNCIA
modifications: FLAG tag
notes: tested as FLAG-tagged protein

Experiments:
[1] = biological target: T1, HDAC9a-FLAG (Homo sapiens, UniProt Q9UKV0); settings: FLUOR DE LYS substrate; TSA 1 μM (FIG. 7), preincubated 15 minutes at room temperature; SAHA concentration not given
[2] = biological target: T1, HDAC9a-FLAG; experiment: HDAC enzymatic assay, 3H-acetic acid released from 3H-histones; type: biochemical; design: made in house; host or cells: human kidney 293T cells, transient transfection, anti-FLAG M2 agarose immunoprecipitation, elution with FLAG peptide; settings: 3H-histones substrate; SAHA 2 μM (FIG. 8); preincubated 30 minutes at 4° C.
Procedure: The reaction was stopped by the addition of 1M HCl/0.1 acetic acid. Released ^3H-acetic acid was extracted with ethyl acetate and quantified by scintillation counting. For inhibition studies, the immunoprecipitated complexes were preincubated with the different HDAC inhibitors for 30 minutes at 4° C.

[3] = biological target: HDAC9-FLAG (Homo sapiens, UniProt Q9UKV0); settings: FLUOR DE LYS substrate; TSA 1 μM (FIG. 7), preincubated 15 minutes at room temperature; SAHA concentration not given
[4] = system: MEF2; experiment: Anti-FLAG immunoprecipitation and anti-MEF2 Western blot; type: binding, human; settings: 293T cells, anti-FLAG IP, anti-MEF2 Western
Procedure: The Xenopus homolog of HDRP, MITR, was identified as a MEF2 interacting transcriptional repressor (Sparrow et al., EMBO J. 18:5085-5098(1999)) and mouse HDRP also interacts with and represses MEF2 mediated transcription (Zhang et al., J. Biol. Chem. 276:35-39 (2001)). […] 293 cells were transfected with vector, HDAC9-FLAG, or HDAC9a-FLAG. […] Western blot analysis of the immunoprecipitated proteins was carried out, using anti-MEF-2 antibody to probe the blot.

[5] = system: MEF2C mediated transcriptional activation; experiment: p3XMEF2-luciferase reporter assay in 293T cells; type: cell-based, human; settings: p3XMEF2-Luc; for repression of MEF2C mediated transcriptional activation: 1 ng, 10 ng, or 100 ng of plasmid; for MEF2C mediated transcriptional activation at the 100 ng dose: 100 ng plasmid
Procedure: It was then determined whether HDAC9 and HDAC9a repress MEF2-mediated transcription. This determination was carried out as follows. The p3XMEF2-luciferase reporter gene (100 ng) and the vector pRL-TK (Promega) (5 ng) were co-transfected into 293T cells in the absence (pcDNA3 empty vector) or presence of MEF2C (100 ng of pCMV-MEF2C). HDAC9-F (1 ng, 10 ng, or 100 ng of pFLAG-HDAC9; pFLAG-HDAC9 and HDAC9-FLAG are different constructs, with the FLAG sequence located at opposite ends of the HDAC9 nucleotide, but are functionally equivalent) or HDAC9a-F (1 ng, 10 ng, or 100 ng of pFLAG-HDAC9a; pFLAG-HDAC9a and HDAC9a-FLAG are different constructs, with the FLAG sequence located at opposite ends of the HDAC9a nucleotide, but are functionally equivalent) was included in a subset of experimental groups with the MEF2C vector. pFLAG empty vector was used to adjust the DNA to an equal amount in each transfection. The cells were harvested 24 to 36 hours after transfection and the luciferase activities were measured using the Dual-Luciferase™ Reporter Assay System from Promega according to the manufacturer's instruction. The firefly luciferase activity was first normalized to the co-transfected Renilla luciferase activity (encoded by the pRL-TK vector), and the luciferase activity value for cells transfected with MEF2C alone was set at 1. MEF2C activated transcription over 30 times the basal level of transcription. […] The transcriptional repression effect of HDAC9 and HDAC9a on MEF2C mediated transcription was a specific effect since a co-transfected reporter gene for transfection efficiency containing a TK promoter was not repressed by HDAC9 or HDAC9a.

[6] = HDAC enzymatic activity of immunoprecipitated HDAC9/HDAC9a compared with HDAC4; type: biochemical; settings: comparable amount of protein; immunoprecipitated from 293T cells

Molecule | inhibition of HDAC9a deacetylase activity [1] | inhibition of histone deacetylase activity of HDAC9a-FLAG [2] | inhibition of HDAC9 deacetylase activity [3] | interaction with MEF2 [4] | repression of MEF2C mediated transcriptional activation [5] | MEF2C mediated transcriptional activation at the 100 ng dose [5] | HDAC activity relative to the deacetylase activity of HDAC4 [6]
O=C(CCCCCCC(=O)Nc1ccccc1)NO [SAHA, suberoylanilide hydroxamic acid] | completely inhibited | completely inhibited | completely inhibited |  |  |  | 
B1 |  |  |  | interacted with MEF2 | in a dose-dependent manner | completely abolished | about ten times lower
B2 |  |  |  | interacted with MEF2 | in a dose-dependent manner | completely abolished | about ten times lower
